Results taken from patent US11142588B2, “Polypeptides which bind C-X-C chemokine receptor type 4 (CXCR4) and methods of treating or reducing the risk of fibrosis and cancer” (AdAlta Limited, priority 2015, dated 2021).
Read-outs that look alike come from different tables or passages of the source.

Tests used:
Ramos tumor cells [1] = conditions: previous report, Kuhne et al 2013; cited from earlier work
[2] = Binding to null lipoparticles (off-target control)
Experimental: (FIGS. 2A-2C, 5A-5C, 11A-11D, 17A-17B) Kinetic binding analysis of selected i-bodies with immobilized CXCR4 lipoparticles were performed at 25° C. using Biacore T200 instrument (GE Healthcare, Uppsala, Sweden). Streptavidin immobilization was performed in 1×HBS-P+ running buffer (10 mM HEPES, 150 mM NaCl, 0.05% [v/v] Tween-20). Amine coupling kit (GE Healthcare) and the instructions therein were utilized for the attachment of Streptavidin (Sigma; diluted to 100 μg/mL in 10 mM sodium acetate buffer pH 4.5) in all four channels on the sensor chip surface simultaneously, resulting in >6,000 RU of Streptavidin being coupled (1 RU=1 pg protein/mm^2). All binding experiments involving lipoparticles were performed with 1×HBS/BSA (10 mM HEPES, 150 mM NaCl, 1 mg/mL BSA) as instrument running buffer. Biotinylated CXCR4 lipoparticles (Integral Molecular, Cat #LEV-101B; 3.6 U/mL as described in WO 2005/042695) were typically diluted 1 in 20 in the running buffer and immobilized onto a Streptavidin containing channel by injecting at […] for 1,800 sec resulting in captured response levels of greater than 2,500 RU. […] In order to determine binding kinetics, serial dilutions (three-fold) of i-bodies diluted in 1×HBS/BSA were injected over immobilized lipoparticles with the association and dissociation phases monitored for 60 sec and 600 sec, respectively. […]

[3] = biological target: CCR5 positive lipoparticles (Homo sapiens, UniProt P51681); test: ELISA binding to CCR5 positive lipoparticles
Chain of CCR5 positive lipoparticles (P51681 whole entry): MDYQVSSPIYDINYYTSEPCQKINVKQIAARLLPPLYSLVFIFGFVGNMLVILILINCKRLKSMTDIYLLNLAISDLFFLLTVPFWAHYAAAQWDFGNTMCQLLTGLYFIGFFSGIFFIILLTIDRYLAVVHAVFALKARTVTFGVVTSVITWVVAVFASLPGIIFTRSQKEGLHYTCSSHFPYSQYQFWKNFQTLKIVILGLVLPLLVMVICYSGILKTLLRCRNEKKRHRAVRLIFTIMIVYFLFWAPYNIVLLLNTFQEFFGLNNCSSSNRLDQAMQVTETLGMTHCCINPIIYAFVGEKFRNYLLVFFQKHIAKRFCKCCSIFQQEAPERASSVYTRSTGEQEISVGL
Excerpt: The mutant i-body clones were also examined for binding to CCR5 positive lipoparticles (FIG. 7B).

CXCR4 = CXCR4 (Homo sapiens, UniProt P61073); test: β-arrestin BRET assay, antagonist mode with 100 nM SDF-1; type: cell-based; set-up: expressed in transfected cells; host or cells: HEK293FT; conditions: various concentrations
Chain of CXCR4 (P61073 whole entry): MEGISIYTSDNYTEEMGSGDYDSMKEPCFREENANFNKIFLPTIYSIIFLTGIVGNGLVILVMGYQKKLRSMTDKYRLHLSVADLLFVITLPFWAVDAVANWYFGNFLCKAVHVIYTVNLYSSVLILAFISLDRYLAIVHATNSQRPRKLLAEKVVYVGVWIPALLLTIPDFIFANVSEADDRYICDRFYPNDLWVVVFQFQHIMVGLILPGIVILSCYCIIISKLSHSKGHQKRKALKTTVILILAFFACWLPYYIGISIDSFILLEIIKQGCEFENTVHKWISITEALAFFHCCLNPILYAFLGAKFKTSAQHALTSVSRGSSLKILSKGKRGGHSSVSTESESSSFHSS
Method in brief: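 HEK293FT cells transiently co-expressed CXCR4/Rluc8 and β-arrestin2/Venus and were read at 37 °C with coelenterazine h or EnduRen substrate. i-Bodies were tested at ten concentrations with 100 nM SDF-1. BRET signal is the 520-540/400-475 nm emission ratio minus the vehicle ratio; mean±S.E.M. of four experiments in duplicate.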

Ramos tumor cells [4] = test: Apoptosis assay (annexin V / propidium iodide flow cytometry); type: cell-based, human; conditions: annexin V and propidium iodide double positive, 24 or 72 hours
Experimental: The ability of an i-body of the invention to induce apoptosis in Ramos tumor cells (a human Burkitt's lymphoma cell line) was examined in an apoptosis assay according to the methods as described in Mishra M et al (2011) J Cell Mol Med 15(11):2462-77. I-bodies were incubated with Ramos cells and examined by flow cytometry after 24 or 72 hours. The cells were stained for annexin V and propidium iodide which are classic markers for apoptosis. Cells which were double positive were assessed to have become apoptotic.

CCRF-CEM cells = test: Immunohistochemistry staining of tumours in spleen and liver of SCID/bg mice; conditions: 130 μg/ml
Experimental: Tissues were fixed in 10% neutral buffered formalin overnight and subsequently transferred into tissue cassettes and placed in 70% ethanol. The tissues were then paraffin embedded. Slides containing 4 μm sections were deparaffinized and hydrated by incubating them in two changes of xylene for five min each, followed by two changes of 100% ethanol for 3 min each, 70% ethanol for 2 min, 50% ethanol for 2 min, and distilled water for 5 min. Antigen retrieval was performed by incubating the slides in 10 mM Citric acid solution (pH 6.0) in an 80° C. oven overnight. The slides were subsequently washed in PBS and permeabilized in 10% methanol containing 0.4% H2O2 for 30 min. […] All slides were subsequently stained with biotinylated anti-His tag antibodies (Miltenyi Biotech) and developed using an HRP-DAB cell and tissue staining kit according to the manufacturer's instructions (R&D systems).

[5] = Laser induced choroidal neovascularisation model; type: in vivo, mouse; conditions: intravitreal, 1 μl up to 20 mg/ml
Experimental: The laser induced choroidal neovascularisation (CNV) is a well characterised and accepted model of choroidal neovascularisation (Fletcher E L et al. (2011) Prog Mol Biol Transl Sci 100:211-286). It is also a rapid method for determining the efficacy of potential treatments that target angiogenesis and fibrosis. Briefly, up to four laser spots are applied to the posterior eye using a continuous wave photocoagulation laser ([…] diode). The laser energy is high enough to create a break in Bruch's membrane. During the following 7-14 days, growth of blood vessels from the choroid into the retina occurs, and is quantified either immuocytochemically, or using fluorescein angiography.
Mice were treated as below: • Group 1 (n=10): laser both eyes-vehicle in one eye; i-body in the other • Group 2 (n=10): Laser one eye (no i-body); other eye unlasered. • The i-body drug was injected intravitreally in 1 μl volume at a concentration up to 20 mg/ml.
The expression of genes associated with angiogenesis and fibrosis was examined. Total RNA was isolated from the retina and RPE/choroidal samples using commercial spin columns (RNeasy, Qiagen, Valencia Calif.). A PCR gene array was used to assess the expression of 84 genes involved angiogenesis or fibrosis (Qiagen). Briefly, total RNA samples from untreated, laser treated eyes and untreated fellow eyes (n=9 each group, each 25 ng) were pooled within their respective treatment groups (3 independent experiments containing 3 pooled samples), reversed transcribed (RT2 first strand, Qiagen) and then underwent pre-amplification of the cDNA target templates (RT2 pre-AMP, Qiagen). Samples were added to a commercial mastermix (RT2 SYBR green mastermix, Qiagen) and amplified for 40 cycles (ABI 7900HT, Life Technologies, Grand Island N.Y.). Three independent arrays were performed for each treatment group. The data were analysed using delata delta Ct (ΔΔCt), expressed as fold change and regulation assessed using an unpaired t-test.

[6] = tested on: normal and IPF lung fibroblasts; test: Wound healing invasion assay of lung fibroblasts; type: cell-based, human; conditions: 130 μg/ml
Experimental: To determine the role of CXCR4 and CXCL12 in fibroblast invasion, normal and IPF lung fibroblasts were utilized in a wound healing invasion assay. ImageLock 96 well plates (Essen Bioscience) were coated with 50 μg/ml of Basement membrane extract (BME; Trevigen) for one hour at room temperature. Normal, and fibroblasts generated from lung biopsies of idiopathic pulmonary fibrosis (IPF) patients showing slow progression or rapid progression of the disease were plated (36,000 cells per well) on the BME-coated plates and incubated overnight. […] The BME was allowed to polymerize by incubating the plate at 37° C. for 15 minutes. The plates were then inserted into an IncuCyte Zoom imaging system and images were acquired every 2 hours for approximately 50 hours. Invasion was quantified using IncuCyte software (Essen Bioscience).

[7] = tested on: ACTA2, COL1A1, COL3A1 and FN1 transcripts; test: qPCR of pro-fibrotic transcripts in lung fibroblasts; type: cell-based, human; conditions: 130 μg/ml, 48 hours
Experimental: After 48 hours, RNA was extracted using Trizol reagent and reverse transcribed into cDNA using superscript II reverse transcriptase (Life technology) as previously described (Trujillo et al Sci Transl Med 2010 2; 57ra82). Complementary DNA (cDNA) was subsequently loaded into a Taqman plate and gene expression analysis were performed using predesigned primers for COL1A1, COL3A1, FN1, and aSMA. All Taqman analysis was performed using an Applied Bio system's Viia 7 instrument (Life technology). The results were then exported, normalized to 18s RNA expression and fold change analysis were calculated using Data Assist software (Life technologies).

CCL2 and CCL5 protein = test: CCL2, CCL5, CXCL12 ELISA of fibroblast conditioned supernatants; type: cell-based, human; conditions: 48 hours
Excerpt: Various reports indicate that CXCR4 signals in conjunction with other chemokine receptors, including CCR2.

MDX-1338: human anti-CXCR4 mAb
induction of apoptosis in Ramos cells (Ramos tumor cells [1]): able to induce apoptosis

B1: ADCX-272: CXCR4 binding i-body, SEQ ID NO: 14 (protein)
chain: LQVDIVPSQGEISVGESKFFLCQVAGHLEVRSISWFSPNGEKLTPNQQRISVVWNDDSSSTLTIYNANIDDAGIYKCVVEQRGRSQSYFSEATVNVKIFQ
binding to null lipoparticles [2]: very little binding
binding to CCR5 positive lipoparticles [3]: very little binding
β-arrestin activity (CXCR4): some degree of inhibition

B2: AM3-114-6H: AM3-114 with 6 His tag, containing the N-terminal sequence EAEA (protein)
chain: EAEALQVDIVPYQGEISVGESKFFLCQVAGSLSGIRISWFSPNGEKLTPNQQRISVVWNDDSSSTLTIYNANIDDAGIYKCVVWRTGGYRHRYLVLGEATVNVKIFQ
modifications: left off: small tags and cut ends
induction of apoptosis in Ramos cells (Ramos tumor cells [4]): strongly induce apoptosis
staining of CCRF-CEM cells in spleen and liver (CCRF-CEM cells): stained CCRF-CEM cells
pathological angiogenesis / lesion size [5]: reduces pathological angiogenesis or lesion characteristics
invasion of rapid-IPF (fast progressor) lung fibroblasts [6]: two out three
invasion of slow-IPF lung fibroblasts [6]: inhibited invasion
ACTA2, COL1A1, COL3A1 and FN1 transcript expression in slow-IPF lung fibroblasts [7]: markedly reduced
CCL2 protein in IPF fibroblast conditioned supernatants (CCL2 and CCL5 protein): markedly increased
